Results from article PMC9270392, “An ancestral function of strigolactones as symbiotic rhizosphere signals” (Nature Communications, 2022).

Substrate: CC1=CC(O/C=C(C)\C=C\C2=C(C)CCCC2(C)C)OC1=O
Assay: LC-MS/MS of BSB formed by yeast microsomes, Michaelis-Menten fit
Assay type: biochemical, Marchantia paleacea
Conditions: rac-CL 0.25 to 33 μM, NADPH 500 μM, 28 °C, 10 min, microsomes of WAT11 yeast, overall two-step conversion CL to BSB via CLA

B1: MpaMAX1 (Marchantia paleacea subsp. diptera) (protein)
chain: MITSMEGWTGVGALGSLVFMVVIMVYYFYPTWKVRHIPVPPYTWFLGHIPLLTKHQALCWTMLAKDYGPMYRFHVGRQPMVMVTDAELCRQVGLKLFKQVPNRSNPAMIEGSSVLKKALFFSRDEQWSGMKSILQPLFHSDKMNNYTPIMTQIVDELLERLRSVKEGEDVNISRLFQRLTLDVIGEVAFGIKFGLVLETPGPDEWLVQTTVKSIDALRMDAGAGVPLSTIVGTFFPILQKPFRSLLRMIPGTPEWVADGSDHALKLRLRQIQQEREELMRRNGSVSRVDSLSLLLNSSKLNKQNGKLLTQDYIGALTYELTLVGSETSSVTLSMLTYLLALHPECERKMLAEIDAFGPRDLPITTEDLETKFPYVDMVIKETMRKHTTTPVVAREASEDIELGGYHLPKGTWVWLVLEALQMNPKDFPEPEEFRPERFDENCDEAKTRHPYAFLPFGVGPRSCLGKRFAAQEVKLTVVRLYQNFTFTLSPLTKVPLETQFGIVVRPKHGVCVRVHPRWTRL
notes: cDNA in pYeDP60, expressed in yeast WAT11 (Saccharomyces cerevisiae); microsomal fraction
Km: 4.78 ± 1.22 µM
